Assays:
AP-1 = assay: Dual-pathway multicolor luciferase assay, AP-1 reporter; type: cell-based, human; conditions: 500 ng/ml WNT5A, after 24h
Text: The dual-pathway luciferase reporter vector was generated using the GoldenBraid2.0 Assembly Platform (Sarrion-Perdigones et al., 2011; Sarrion-Perdigones et al., 2013). Briefly, transcriptional units comprising the promoter elements, the CDS of the corresponding luciferase and the bovine growth hormone terminator were first assembled, and then these were latter combined in successive rounds of assembly to build the multigenic vector used in this assay. For the multicolor luciferase assay, H1-derived EPs were first dissociated into 96-well plates using method previously described and incubated overnight to allow cell attachment. […] At the determined harvesting point, culture media was removed and wells were washed with PBS. […] 10 μL of LARII reagent was added with the built-in injectors and after 2 seconds, the total light and the BP filtered light emitted by the FLuc and RedF mixture were measured for 1 second. Finally, 15 μL of Stop & Glo® reagent were injected and after 4 seconds the emitted light by Renilla luciferase was measured. The activity corresponding to FLuc and RedF that were simultaneously measured after the LARII reagent was added were calculated according to the method proposed by Nakayima et al (Nakajima et al., 2005) that is adjusted to this particular assay and explained in FIG. 7D.

hESC-derived EPs = assay: qPCR-based gene expression analysis of WNT5A-treated EPs; type: cell-based, human
Procedure: Total RNA was isolated using TRIzol (Thermo Fisher Scientific) according to the manufacturer's protocol. DNAase (Qiagen) treatment was performed to remove genomic DNA. cDNA was synthesized using iScript (Biorad) by using […] of RNA. For qPCR, KAPA SYBR FAST (Kapa Biosystems) and Connect CFX light cycler (Biorad) for PCR reaction (<40 cycles were used). Primers were designed using qPrimerDepot in such way that the PCR product spans across exons junction. Primer specificity was checked using CFX manager software v3.1 […] and PCR product electrophoresis. Threshold data were analyzed by CFX manager software v3.1 using Comparative Ct relative quantitation method with TBP as internal control.

B1: WNT5A: secreted growth factor from the human pancreatic niche (R&D), used at 100 or 500 ng/ml (protein)
chain: IIGAQPLCSQLAGLSQGQKKLCHLYQDHMQYIGEGAKTGIKECQYQFRHRRWNCSTVDNTSVFGRVMQIGSRETAFTYAVSAAGVVNAMSRACREGELSTCGCSRAARPKDLPRDWLWGGCGDNIDYGYRFAKEFVDARERERIHAKGSYESARILMNLHNNEAGRRTVYNLADVACKCHGVSGSCSLKTCWLQLADFRKVGDALKEKYDSAAAMRLNSRGKLVQVNSRFNSPTTQDLVYIDPSPDYCVRNESTGSLGTQGRLCNKTSEGMDGCELMCCGRGYDQFKTVQTERCHCKFHWCCYVKCKKCTEIVDQFVCK
AP-1 activity (in words) (AP-1): activates
GCG expression compared to untreated cells (in words) (hESC-derived EPs; 5-day WNT5A-treated cells): decreased
INS, CHGA, ONECUT1 and PCSK2 expression compared to untreated cells (in words) (hESC-derived EPs; 5-day WNT5A-treated cells): increased
BMP3, BMP4 and BMP6 expression by qPCR (in words) (hESC-derived EPs; 5 day-WNT5A treatment): downregulation
BMP inhibitor BMPER expression by qPCR (in words) (hESC-derived EPs; 5 day-WNT5A treatment): upregulation
